Measured values taken from patent US20230071609A1 (Genentech, published 2023).
Blank lines part the entries; values can stand above or below the binder they belong to.

Columns and labels:
[1] = biological target: T1, gD-MAD-SRA-ID-GPI (construct d) (human, UniProt O14791 238-398, C-terminal GPI anchor); experiment: flow cytometry, live CHO cells; 3.7D6 is the representative PFD antibody
T1 sequence: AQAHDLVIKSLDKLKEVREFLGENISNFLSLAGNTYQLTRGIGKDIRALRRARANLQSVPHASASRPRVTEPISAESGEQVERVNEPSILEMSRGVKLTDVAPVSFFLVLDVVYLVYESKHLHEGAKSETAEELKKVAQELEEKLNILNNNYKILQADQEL
Protocol: Stably transfected live (not fixed or permeabilized) CHO cells expressing the gD-iAPOL1-GPI constructs indicated in FIGS. 1A-1E after induction with 5 μg/ml dox for 48 h, showing differential antibody binding at 5 μg/ml. […] White histograms are Alexa488 anti-mouse or anti-rabbit secondaries only; grey histograms are the anti-APOL1 signals. A representative histogram for each category is shown: 3.7D6 for PFD; 3.3A8 for C-terminus of MAD, 3.5H9 for N-terminus of MAD; 3.1C1 for SRA-ID; 3.2D4 for multi-domain; 3.3F7 for conformational and 3.5B10 for FACS-negative (FACS-ve). The prefix 3 in the name of the antibodies denotes murine monoclonals from Method #3 (as shown in Example 1 below); other antibodies (not illustrated here) starting with the number 4 are murine monoclonals derived from mice additionally boosted with SRA-ID protein; and prefix 5-named antibodies are rabbit monoclonals from Method #5 (Table 2A; and Example 2). […] The Sigma polyclonal (HPA018885, raised to aa 263-387) and the Epitomics rabbit monoclonal (EPR2907(2), raised to an undisclosed peptide) are SRA-ID binders. […]
Cells were harvested with 5 mM EDTA in PBS, washed once with growth media and twice with PBS. […] Signals were read in a FACSCalibur3 (Becton Dickinson), with the exception of FIG. 8A and FIG. 14, which used a FACSCelesta, and data was analyzed using FlowJo v8.4.5.

[2] = biological target: T2, endogenous human APOL1 (wild-type immortalized podocytes; also JHH-1 cells, kidney and liver tissue) (human, UniProt O14791 28-398); experiment: podocyte flow cytometry
T2 construct: whole, on cells; Cell or tissue and permeabilization are told under assay; also called podocyte APOL1; endogenous APOL1
T2 sequence (looked up): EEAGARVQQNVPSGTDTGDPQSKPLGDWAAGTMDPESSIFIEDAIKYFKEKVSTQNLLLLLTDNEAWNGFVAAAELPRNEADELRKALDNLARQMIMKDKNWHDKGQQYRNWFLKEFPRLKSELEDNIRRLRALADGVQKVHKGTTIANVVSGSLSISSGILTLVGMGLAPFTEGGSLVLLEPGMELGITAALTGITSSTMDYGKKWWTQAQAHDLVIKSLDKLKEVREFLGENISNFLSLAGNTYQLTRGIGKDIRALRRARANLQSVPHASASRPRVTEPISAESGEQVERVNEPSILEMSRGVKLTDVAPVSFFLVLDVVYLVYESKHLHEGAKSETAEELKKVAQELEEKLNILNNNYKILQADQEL
Protocol: In FIG. 25A, live WT (left) or APOL1 KO (right) podocytes were incubated on ice for 1 h (without fixation or permeabilization) with 2.5 μg/ml 3.6D12 (an APOL2 cross-reactive mAb). “2° Ab” is Alexa488 anti-mouse secondary antibody alone; “—IFNγ” is untreated; “+IFNγ” is IFNγ-treated cells. There is a shift on WT, but not KO cells (which express APOL2 but not APOL1). […] Thus, the shift seen with 3.6D12 in WT cells must represent APOL1, and increases with IFNγ, as expected.
Cells were harvested with 5 mM EDTA in PBS, washed once with growth media and twice with PBS. Approximately 0.5×10⁶/m1 of cells resuspended in PBS were incubated with anti-APOL1 antibodies for 1 h on ice. Following two PBS washes, 2 μg/ml of Alexa488 anti-mouse or anti-rabbit (Invitrogen A11029 and A21206, respectively) was used for 1 h on ice for detection. Cells were washed twice in PBS and resuspended in PBS with 1 μg/ml propidium iodide. Signals were read in a FACSCalibur3 (Becton Dickinson), with the exception of FIG. 8A and FIG. 14, which used a FACSCelesta, and data was analyzed using FlowJo v8.4.5. Mean fluorescence intensities were plotted in PRISM v7 after subtraction of secondary antibody alone background. For low pH experiments, cells were incubated with the antibodies in the presence of PBS pH 7.0 or PBS pH 5.5 for an hour on ice and detected with secondary antibodies at neutral pH.

[3] = biological target: T3, APOL1 very C-terminal peptide aa 376-398 (human); experiment: overlapping ~20-mer peptides (SPR, western blot); antibody named in paragraph 192
T3 peptide: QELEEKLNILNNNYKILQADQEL
Protocol: Following three TBST washes, anti-mouse (GE Healthcare NA931V, 1:3000) or anti-rabbit HRP (Jackson 711-036-152, 1:8000) was added as secondary antibody. After 1 h, membranes were washed and protein detected using ECL prime (Amersham RPN2232) exposed to MR film (Kodak). Anti-actin HRP-conjugated antibody (clone 13E5, Cell Signaling Technologies 5125S at 1:5000) or calnexin (Abcam Ab22595 at 1:1000) was used as a loading control. For peptide mapping, 2 μl of 1 mM peptides in DMSO were boiled in 5× sample buffer and loaded on 10% Tris-Glycine gel and run using MES buffer. Cell pellets of Sf9 lysates were lysed in native RIPA (NP-40) lysis buffer and run on 10% Tris-Glycine gels.
A 96×96 array-based SPR imaging system (Carterra USA) was used for epitope mapping of anti-ApoL1 monoclonal antibodies. Briefly, purified monoclonal hybridoma antibodies were diluted at 10 μg/ml in 10 mM sodium acetate buffer pH 4.5. Using amine coupling, antibodies were directly immobilized onto a SPR sensorprism CMD 200M chip (XanTec Bioanalytics, Germany) using a Continuous Flow Microspotter (Carterra, USA) to create an array of antibodies. After coupling, the antibodies were blocked with ethanolamine, and primed with running buffer (10 mM HEPES, pH 7.4, 150 mM NaCl, 3 mM EDTA, and 0.005% Tween 20). Epitope mapping was performed by flowing 100 nM of different peptides of APOL1 across the immobilized anti-APOL1 antibodies on the biosensor chip at 25° C. in a running buffer of 10 mM HEPES, pH 7.4, 150 mM NaCl, 3 mM EDTA, and 0.005% Tween 20. After each flow through of the APOL1 peptide, the chip surface was regenerated using 10 mM glycine, pH 2.0.

binding result [1]: no binding (tested: 5 µg/ml)
B1: antibody 3.7D6 (antibody, V domains shown)
VH: QIQLVQSGPDLKKPGETVKISCRTSGYAFTNYGVNWVKQAPGKGLKWMGWINTNTGQTTYAEEFRGRFAISLETSASTAFLTISNLKNEDSATYFCARLIYDGDYISSDFWGQGTTLTVSS
VL: DIQMTQSPDSLSASVGETVTITCGASENIYGALNWYQRKQGKSPQLLIYGATNLADGMSSRFSGSRSGRQYSLKISSLHPDDVATYYCQNALSMPYTFGGGTKLEIKR
notes: Mouse mAb, cloned as murine IgG2a LALAPG; those versions are not written separately; also called PFD antibody 3.7D6

B2: antibody 3.6D12 (antibody, V domains shown)
VH: EVMLVESGGGLVRPGGSLKLSCTASGFTFSRCAMSWVRQTPEKRLEWVSAISRDSTYTYYSDSVKGRFTVSRDNAKNTLYLQMSSLRSEDTAMYYCARQIDDYYVDALDYWGQGTSVTVSS
VL: DVQITQSPSYLAASPGETITINCRASKIISKYLAWYQEKPGKTIKLLIYSGFTLQSGIPSRFSGSGSGTDFTLTISSLEPEDFAMYYCQQHNEYPLTFGAGTKLEIKR
notes: Mouse mAb (Method #3), cloned as murine IgG2a LALAPG; Early screens used hybridoma-purified antibody; also called mAb 3.6D12
binding result [2]: binds

binding result [3]: binds
B3: antibody 4.12E5 (antibody, V domains shown)
VH: EVQLQQSGPELVKTGASVKISCKASGYSFTGYFMHWVKQSHGKSLEWIGYISCYNGASVYNQRFKGKATFTIDTSSSTAYMQFNSLTSEDSAVYYCARDVLRYPRYAVDYWGQGTSVTVSS
VL: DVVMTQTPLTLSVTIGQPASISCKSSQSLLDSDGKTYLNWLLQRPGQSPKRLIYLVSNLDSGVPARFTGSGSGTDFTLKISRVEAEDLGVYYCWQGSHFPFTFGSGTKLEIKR
notes: Mouse mAb, cloned as murine IgG2a LALAPG
